Reference: patent publication US20210162028A1, “Methods for Inducing Intermittent Fasting and Modulating Autophagy” (The Hong Kong Polytechnic University, priority 2019, published 2021)
“Also recorded” adds a separate entry of the source.

How the values were obtained:
Assay type in all cases: in vivo, mouse
LC3-II/LC3-I = assay: Autophagic flux in liver, LC3-II/LC3-I western blot with chloroquine; settings: DIO male mice on HFD; 600 U once a week, 4 weeks; Day 3 of cycle
Procedure: Ratio of LC3-II/LC3-I proteins was used as a marker of autophagy and was semiquantified by western blotting. Chloroquine (an autophagy inhibitor, CQ) was injected 5 hr to accumulate autophagosome in the liver before tissue collection. *P<0.05, one-way ANOVA followed by Bonferroni test. Data are expressed as mean±SEM, n=3 for each group.
Autophagy is involved in cell growth, survival, development and death. Impaired autophagic flux has been linked to a variety of human pathophysiological processes, including neurodegeneration, cancer, myopathy, cardiovascular and immune-mediated disorders. There is a growing need to identify and quantify the status of autophagic flux in different pathological conditions. Autophagy is a highly dynamic and complex process that is regulated at multiple steps. Autophagic flux can be detected by LC3-II turnover using western blot analysis in the presence and absence of lysosomal degradation inhibitors, chloroquine (CQ). If autophagic flux is occurring, the level of LC3-II will increase in the presence of a lysosomal degradation inhibitor because the transit of LC3-II through the autophagic pathway will be blocked.

[1] = Barnes maze test for spatial learning and memory; settings: DIO C57BL/6J male mice on HFD; weekly, at 43-44 weeks of treatment
Procedure: To determine whether N-ABD094-rhArg [SEQ ID NO: 50], which can induce repetitive intermittent fasting cycles, has beneficial effects on cognitive performance, the Barnes maze test was conducted over ten days to evaluate spatial learning and memory function. The test was performed on a flat circular platform (100 cm in diameter, 1.5 cm thick, elevated 40 cm above the floor) with twenty evenly-spaced holes (7 cm in diameter) distributed around the circumference, and an escape box was placed under one of the holes. Prior to experimentation, each mouse was guided to the specific hole that was positioned over the escape box and left for 180 seconds. Subsequently, each mouse was trained to find the escape hole by placing the mouse in the center of the platform under a small black chamber for three seconds, the chamber was then lifted, and mouse was allowed to find the escape hole within 180 seconds. The platform was brightly illuminated and cooled using a desk fan as adverse stimuli. If the mouse was unable to find the target hole in the allowed time, it was guided to the escape box. Two trials were performed each day for four consecutive days as training period, after which the short- and long-term spatial memory of the mouse was probed on Day 5 and Day 10 respectively, by removing the escape box and allowing them to explore the platform for a full 180 seconds. Each trial was recorded directly over the platform. For each trial on Day 1 to 4, the time required to find the escape hole and exit the platform, and the type of exploratory pattern (random, serial, or direct) in exploring were recorded. For each probe trial on Day 5 and 10, the number of times the mice investigated each of the twenty holes was recorded over 180 seconds, with an instance of investigation defined as the localization of the snout inside a given hole.
Spatial memory loss is a prominent feature in rodent models of type 2 diabetes and obesity [Boitard et al., 2014; Underwood and Thompson, 2016]. To investigate whether arginase treatment could prevent spatial memory loss in mice fed a HFD, DIO C57BL/6J male mice were subjected to assessment of spatial memory by Barnes maze test at 43 weeks after receiving weekly administration of N-ABD094-rhArg (SEQ ID NO: 50) starting from 17-week old.

[2] = Bodyweight of treated mice

B1: N-ABD094-rhArg: recombinant human arginase fused to albumin binding domain ABD094 (SEQ ID NO: 50); engineered long-acting arginine-depleting enzyme (protein)
chain: MHHHHHHDEAVDANSLAEAKEAANAELDSYGVSDFYKRLIDKAKTVEGVEALKDAILAALPSGSNNNNNNGSGGMSAKSRTIGIIGAPFSKGQPRGGVEEGPTVLRKAGLLEKLKEQECDVKDYGDLPFADIPNDSPFQIVKNPRSVGKASEQLAGKVAEVKKNGRISLVLGGDHSLAIGSISGHARVHPDLGVIWVDAHTDINTPLTTTSGNLHGQPVSFLLKELKGKIPDVPGFSWVTPCISAKDIVYIGLRDVDPGEHYILKTLGIKYFSMTEVDRLGIGKVMEETLSYLLGRKKRPIHLSFDVDGLDPSFTPATGTPVVGGLTYREGLYITEEIYKTGLLSGLDIMEVNPSLGKTPEEVTRTVNTAVAITLACFGLAREGNHKPIDYLNPPK
modifications: N-ABD094-rhArg, Synthesized in the Lab
notes: engineered long-acting arginine-depleting enzyme
LC3-II/LC3-I
  LC3-II/LC3-I ratio in liver upon chloroquine injection (autophagic flux): dramatic increase; also recorded: enhancement of autophagic flux
[1]
  Barnes maze: exploratory pattern (search mode) on Day 1: predominately used a serial-type exploratory pattern; also recorded: significantly improve their search mode
  Barnes maze: latency to exit the platform in training period: could exit the platform significantly earlier than HFD-fed mice treated with vehicle; also recorded: significantly reduce the total latency
  Barnes maze: probe trial Day 5 (short-term memory): explored the holes nearest to the target in increasing frequency with the target hole being the most-explored hole
  Barnes maze: probe trial Day 10 (long-term memory): Such trends were maintained on Day 10
[2]; 16-month old DIO C57BL/6J male mice on HFD, about 68 g prior to treatment, once a week, 25 weeks
  Drop of bodyweight: 50%
[2]; 16-month old DIO C57BL/6J male mice on HFD, about 600 U once a week, 25 weeks
  Bodyweight maintained for the rest of the treatment period: around 30 g
[2]; 17-month old C57BL/6J male mice on chow diet, about 600 U once a week, 21 weeks, from 40 g
  Bodyweight reached and maintained under treatment: 30 g
[2]; 25-month old C57BL/6J male mice on chow diet, about 600 U once a week, from 45 g within 3 weeks
  Bodyweight reached and maintained under treatment: 30 g
[2]; DIO C57BL/6J male mice on HFD, 300 U rhArg once a week alone or 300 mg/kg metformin daily alone
  Change in bodyweight under single treatment: stable body weight without further increase in body mass
[2]; DIO C57BL/6J male mice on HFD, 300 U rhArg once a week alone or 300 mg/kg metformin daily alone, listed as rhArg
  Change in bodyweight under single treatment: could only prevent further gain in bodyweight, but did not result in weight loss
[2]; DIO C57BL/6J male mice on HFD, 600 U i.p. once a week, 5 weeks (artificial IF experiment)
  Change in bodyweight: substantial weight loss
[2]; DIO C57BL/6J male mice on HFD, 600 U i.p. once a week, 5 weeks (reduced daily food intake experiment)
  Decrease of bodyweight by the end of treatment: 44%
[2]; DIO C57BL/6J male mice on HFD, about 600 U i.p. once a week, within 6-7 weeks
  Reduction of bodyweight: 40%
[2]; DIO C57BL/6J male mice on HFD, about 600 U once a week, 49 weeks, from 50 g within 6-7 weeks
  Bodyweight reached and maintained under treatment: around 30 g
[2]; DIO C57BL/6J male mice on HFD, about 600 U once a week, 49 weeks, from 50 g within 6-7 weeks, listed as rhArg
  Bodyweight reached and maintained under treatment: 30 g
[2]; DIO C57BL/6J male mice on HFD, rhArg once a week alone or 0.33 mg RA daily alone
  Change in bodyweight under single treatment: stable body weight without further increase
[2]; DIO C57BL/6J male mice on HFD, rhArg once a week alone or 0.33 mg RA daily alone, listed as rhArg
  Change in bodyweight under single treatment: could only prevent further gain in bodyweight, but did not result in weight loss
[2]; DIO ICR female mice on HFD, 1200 U i.p. once a week, within 9-10 weeks
  Decrease of bodyweight: 30%
[2]; DIO ICR female mice on HFD, about 1200 U once a week, 56 weeks
  Bodyweight maintained for the rest of the treatment period: around 35 g
